From patent US20260265379A1 (IMCHECK THERAPEUTICS, published 2026)

Legend:
[1] = molecular target: T1, PD-L1 at the surface of transduced cells (UniProt Q9NZQ7 19-290, limits assumed); assay: flow cytometry, CHO-PD-L1 cells
T1 construct: whole, on cells; CHO-PD-L1 cells in flow cytometry, Raji-PD-L1 cells in the reporter assay; also called CHO-PD-L1; Raji-PD-L1

recombinant human BTN3A1 = molecular target: T2, recombinant human BTN3A1 (human, UniProt O00481 30-254); assay: SPR
T2 construct: Soluble form of the antigen used in SPR; also called rhBTN3A1; recombinant BTN3A1 protein
T2 sequence (O00481 30-254 limits assumed): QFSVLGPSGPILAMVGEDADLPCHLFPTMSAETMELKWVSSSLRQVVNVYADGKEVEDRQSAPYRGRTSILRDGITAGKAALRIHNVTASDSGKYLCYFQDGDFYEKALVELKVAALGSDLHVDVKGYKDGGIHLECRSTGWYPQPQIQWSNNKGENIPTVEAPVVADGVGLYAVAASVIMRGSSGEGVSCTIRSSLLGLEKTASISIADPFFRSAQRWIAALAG

recombinant human PD-L1 = molecular target: T3, recombinant human PD-L1 (human, UniProt Q9NZQ7 19-239, limits assumed); assay: SPR
T3 construct: Soluble antigen in SPR; also called rhPD-L1
T3 sequence (Q9NZQ7 19-239 limits assumed): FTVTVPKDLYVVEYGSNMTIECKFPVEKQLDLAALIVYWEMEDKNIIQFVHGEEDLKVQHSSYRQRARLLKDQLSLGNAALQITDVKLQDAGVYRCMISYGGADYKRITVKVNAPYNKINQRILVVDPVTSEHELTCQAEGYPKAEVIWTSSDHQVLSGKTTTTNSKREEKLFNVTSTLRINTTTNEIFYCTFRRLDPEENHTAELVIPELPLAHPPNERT

[2] = molecular target: T4, BTN3A1 at the surface of HEK-BTN3A1 cells (human, UniProt O00481 30-513); assay: flow cytometry, HEK-BTN3A1 cells
T4 construct: HEK 293T BTN2A/BTN3A KO cells transduced with a BTN3A1 expressing vector
T4 sequence (O00481 30-513 limits assumed): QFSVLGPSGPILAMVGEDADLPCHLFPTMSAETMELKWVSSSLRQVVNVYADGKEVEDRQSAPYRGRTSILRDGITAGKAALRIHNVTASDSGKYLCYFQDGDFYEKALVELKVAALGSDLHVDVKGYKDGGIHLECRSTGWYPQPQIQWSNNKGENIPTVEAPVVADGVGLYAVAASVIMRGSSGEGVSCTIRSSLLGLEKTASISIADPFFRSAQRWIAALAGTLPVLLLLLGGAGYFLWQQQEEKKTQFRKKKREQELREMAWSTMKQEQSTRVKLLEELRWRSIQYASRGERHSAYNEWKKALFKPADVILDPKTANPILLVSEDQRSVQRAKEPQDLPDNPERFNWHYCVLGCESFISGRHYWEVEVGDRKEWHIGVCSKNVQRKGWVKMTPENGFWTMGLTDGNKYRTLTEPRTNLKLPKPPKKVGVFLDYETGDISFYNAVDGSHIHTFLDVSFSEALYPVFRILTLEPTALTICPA

[3] = molecular target: T1, PD-L1 at the surface of transduced cells; assay: cell-based or functional assay

T1 sequence (Q9NZQ7 19-290 limits assumed): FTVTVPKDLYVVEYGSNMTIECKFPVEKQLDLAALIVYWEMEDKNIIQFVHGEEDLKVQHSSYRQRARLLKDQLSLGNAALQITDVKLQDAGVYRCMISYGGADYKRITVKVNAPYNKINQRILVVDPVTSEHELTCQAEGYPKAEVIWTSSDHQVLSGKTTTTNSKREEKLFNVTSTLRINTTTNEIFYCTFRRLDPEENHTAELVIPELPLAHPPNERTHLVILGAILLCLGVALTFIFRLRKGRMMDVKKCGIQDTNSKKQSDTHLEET

MFI at 10 nM [1] [MFI]	MFI at 100 nM [1] [MFI]	Kd (recombinant human BTN3A1) [nM]	Kd (recombinant human PD-L1) [nM]	MFI at 10 nM [2] [MFI]	MFI at 100 nM [2] [MFI]	Jurkat-PD-1 activation at 10 nM [3]	Jurkat-PD-1 activation at 100 nM [3]	Binder
1.05e+06	1.2e+06	0.074	0.079	790000	1e+06	–	–	bsAb070 (bispecific antibody, not shown: IgG1 CH1-hinge-CH2-CH3; CH2-CH3 (Fc)) heavy 1: EVQLVESGGGLVQPGGSLRLSCAASGFTFSRYWMSWVRQAPGKGLEWVANIKQDGSEKYYVDSVKGRFTISRDNAKNSLYLQMNSLRAEDTAVYYCAREGGWFGELAFDYWGQGTLVTVSS heavy 2: QVQLVQSGAEVKKPGASVKLSCKASGYIFTRYYMYWVKQRPGQGLEWIGEINPNNGGTKFNEKFKNRATLTVDKSISTAYMELSRLRSDDTAVYYCSREDDYDGTPFAMDYWGQGTLVTVSSGGGGSGGGGSGGGGSGGGGSDIQMTQSPSSLSASVGDRVTITCHASQNINVWLSWYQQKPGKAPKLLIYKASNLHTGVPSRFTGSGSGTDFTFTISSLQPEDIATYYCQQGQTYPYTFGQGTKLEIKGGGGSGGGGSGGGGSGGGGS light: EIVLTQSPGTLSLSPGERATLSCRASQRVSSSYLAWYQQKPGQAPRLLIYDASSRATGIPDRFSGSGSGTDFTLTISRLEPEDFAVYYCQQYGSLPWTFGQGTKVEIKRTVAAPSVFIFPPSDEQLKSGTASVVCLLNNFYPREAKVQWKVDNALQSGNSQESVTEQDSKDSTYSLSSTLTLSKADYEKHKVYACEVTHQGLSSPVTKSFNRGECGGGGSGGGGSGGGGSGGGGSDIQMTQSPSSLSASVGDRVTITCHASQNINVWLSWYQQKPGKAPKLLIYKASNLHTGVPSRFTGSGSGTDFTFTISSLQPEDIATYYCQQGQTYPYTFGQGTKLEIKGGGGSGGGGSGGGGSGGGGSQVQLVQSGAEVKKPGASVKLSCKASGYIFTRYYMYWVKQRPGQGLEWIGEINPNNGGTKFNEKFKNRATLTVDKSISTAYMELSRLRSDDTAVYYCSREDDYDGTPFAMDYWGQGTLVTVSS
1.02e+06	1.16e+06	0.1	0.076	635000	1.18e+06	–	–	bsAb069 (bispecific antibody, not shown: IgG1 CH1-hinge-CH2-CH3; CH2-CH3 (Fc)) heavy 1: EVQLVESGGGLVQPGGSLRLSCAASGFTFSRYWMSWVRQAPGKGLEWVANIKQDGSEKYYVDSVKGRFTISRDNAKNSLYLQMNSLRAEDTAVYYCAREGGWFGELAFDYWGQGTLVTVSS heavy 2: DIQMTQSPSSLSASVGDRVTITCHASQNINVWLSWYQQKPGKAPKLLIYKASNLHTGVPSRFTGSGSGTDFTFTISSLQPEDIATYYCQQGQTYPYTFGQGTKLEIKGGGGSGGGGSGGGGSGGGGSQVQLVQSGAEVKKPGASVKLSCKASGYIFTRYYMYWVKQRPGQGLEWIGEINPNNGGTKFNEKFKNRATLTVDKSISTAYMELSRLRSDDTAVYYCSREDDYDGTPFAMDYWGQGTLVTVSSGGGGSGGGGSGGGGSGGGGS light: EIVLTQSPGTLSLSPGERATLSCRASQRVSSSYLAWYQQKPGQAPRLLIYDASSRATGIPDRFSGSGSGTDFTLTISRLEPEDFAVYYCQQYGSLPWTFGQGTKVEIKRTVAAPSVFIFPPSDEQLKSGTASVVCLLNNFYPREAKVQWKVDNALQSGNSQESVTEQDSKDSTYSLSSTLTLSKADYEKHKVYACEVTHQGLSSPVTKSFNRGECGGGGSGGGGSGGGGSGGGGSQVQLVQSGAEVKKPGASVKLSCKASGYIFTRYYMYWVKQRPGQGLEWIGEINPNNGGTKFNEKFKNRATLTVDKSISTAYMELSRLRSDDTAVYYCSREDDYDGTPFAMDYWGQGTLVTVSSGGGGSGGGGSGGGGSGGGGSDIQMTQSPSSLSASVGDRVTITCHASQNINVWLSWYQQKPGKAPKLLIYKASNLHTGVPSRFTGSGSGTDFTFTISSLQPEDIATYYCQQGQTYPYTFGQGTKLEIK
820000	984000	0.076	0.108	344000	862000	5.8 fold-change to medium	7.4 fold-change to medium	bsAb055 (bispecific antibody, one Fab arm anti-BTN3A, one scFv anti-PD-L1; not shown: CH2-CH3 (Fc); IgG1 CH1-hinge-CH2-CH3) heavy 1: GGGGSGGGGSGGGGSGGGGSEVQLVESGGGLVQPGGSLRLSCAASGFTFSRYWMSWVRQAPGKGLEWVANIKQDGSEKYYVDSVKGRFTISRDNAKNSLYLQMNSLRAEDTAVYYCAREGGWFGELAFDYWGQGTLVTVSSGGGGSGGGGSGGGGSGGGGSEIVLTQSPGTLSLSPGERATLSCRASQRVSSSYLAWYQQKPGQAPRLLIYDASSRATGIPDRFSGSGSGTDFTLTISRLEPEDFAVYYCQQYGSLPWTFGQGTKVEIK heavy 2: QVQLVQSGAEVKKPGASVKLSCKASGYIFTRYYMYWVKQRPGQGLEWIGEINPNNGGTKFNEKFKNRATLTVDKSISTAYMELSRLRSDDTAVYYCSREDDYDGTPFAMDYWGQGTLVTVSS light: not shown

Continued, binder first:

Binder	MFI at 10 nM [1] [MFI]	MFI at 100 nM [1] [MFI]	Kd (recombinant human BTN3A1) [nM]	Kd (recombinant human PD-L1) [nM]	MFI at 10 nM [2] [MFI]	MFI at 100 nM [2] [MFI]	Jurkat-PD-1 activation at 10 nM [3]	Jurkat-PD-1 activation at 100 nM [3]
bsAb054 (bispecific antibody, IgG anti-PD-L1, one scFv anti-BTN3A; not shown: IgG1 CH1-hinge-CH2-CH3) heavy (part 1 of 2): EVQLVESGGGLVQPGGSLRLSCAASGFTFSRYWMSWVRQAPGKGLEWVANIKQDGSEKYYVDSVKGRFTISRDNAKNSLYLQMNSLRAEDTAVYYCAREGGWFGELAFDYWGQGTLVTVSS heavy (part 2 of 2): GGGGSGGGGSGGGGSGGGGSQVQLVQSGAEVKKPGASVKLSCKASGYIFTRYYMYWVKQRPGQGLEWIGEINPNNGGTKFNEKFKNRATLTVDKSISTAYMELSRLRSDDTAVYYCSREDDYDGTPFAMDYWGQGTLVTVSSGGGGSGGGGSGGGGSGGGGSDIQMTQSPSSLSASVGDRVTITCHASQNINVWLSWYQQKPGKAPKLLIYKASNLHTGVPSRFTGSGSGTDFTFTISSLQPEDIATYYCQQGQTYPYTFGQGTKLEIK heavy: EVQLVESGGGLVQPGGSLRLSCAASGFTFSRYWMSWVRQAPGKGLEWVANIKQDGSEKYYVDSVKGRFTISRDNAKNSLYLQMNSLRAEDTAVYYCAREGGWFGELAFDYWGQGTLVTVSS light: EIVLTQSPGTLSLSPGERATLSCRASQRVSSSYLAWYQQKPGQAPRLLIYDASSRATGIPDRFSGSGSGTDFTLTISRLEPEDFAVYYCQQYGSLPWTFGQGTKVEIKRTVAAPSVFIFPPSDEQLKSGTASVVCLLNNFYPREAKVQWKVDNALQSGNSQESVTEQDSKDSTYSLSSTLTLSKADYEKHKVYACEVTHQGLSSPVTKSFNRGEC	664000	690000	0.126	0.033	424000	1.06e+06	–	–
bsAb035 (bispecific antibody, IgG anti-BTN3A, one scFv anti-PD-L1; not shown: IgG1 CH1-hinge-CH2-CH3) heavy (part 1 of 2): QVQLVQSGAEVKKPGASVKLSCKASGYIFTRYYMYWVKQRPGQGLEWIGEINPNNGGTKFNEKFKNRATLTVDKSISTAYMELSRLRSDDTAVYYCSREDDYDGTPFAMDYWGQGTLVTVSS heavy (part 2 of 2): GGGGSGGGGSGGGGSGGGGSEVQLVESGGGLVQPGGSLRLSCAASGFTFSRYWMSWVRQAPGKGLEWVANIKQDGSEKYYVDSVKGRFTISRDNAKNSLYLQMNSLRAEDTAVYYCAREGGWFGELAFDYWGQGTLVTVSSGGGGSGGGGSGGGGSGGGGSEIVLTQSPGTLSLSPGERATLSCRASQRVSSSYLAWYQQKPGQAPRLLIYDASSRATGIPDRFSGSGSGTDFTLTISRLEPEDFAVYYCQQYGSLPWTFGQGTKVEIK heavy: QVQLVQSGAEVKKPGASVKLSCKASGYIFTRYYMYWVKQRPGQGLEWIGEINPNNGGTKFNEKFKNRATLTVDKSISTAYMELSRLRSDDTAVYYCSREDDYDGTPFAMDYWGQGTLVTVSS light: not shown	973000	1.28e+06	0.068	0.097	525000	1.03e+06	5 fold-change to medium	7.9 fold-change to medium
bsAb040 (bispecific antibody, IgG anti-BTN3A, one scFv anti-PD-L1; not shown: IgG1 CH1-hinge-CH2-CH3) heavy (part 1 of 2): QVQLVQSGAEVKKPGASVKLSCKASGYIFTRYYMYWVKQRPGQGLEWIGEINPNNGGTKFNEKFKNRATLTVDKSISTAYMELSRLRSDDTAVYYCSREDDYDGTPFAMDYWGQGTLVTVSS heavy (part 2 of 2): GGGGSGGGGSGGGGSGGGGSEIVLTQSPGTLSLSPGERATLSCRASQRVSSSYLAWYQQKPGQAPRLLIYDASSRATGIPDRFSGSGSGTDFTLTISRLEPEDFAVYYCQQYGSLPWTFGQGTKVEIKGGGGSGGGGSGGGGSGGGGSEVQLVESGGGLVQPGGSLRLSCAASGFTFSRYWMSWVRQAPGKGLEWVANIKQDGSEKYYVDSVKGRFTISRDNAKNSLYLQMNSLRAEDTAVYYCAREGGWFGELAFDYWGQGTLVTVSS heavy: QVQLVQSGAEVKKPGASVKLSCKASGYIFTRYYMYWVKQRPGQGLEWIGEINPNNGGTKFNEKFKNRATLTVDKSISTAYMELSRLRSDDTAVYYCSREDDYDGTPFAMDYWGQGTLVTVSS light: not shown	1.04e+06	1.25e+06	0.065	0.066	634000	1.23e+06	6 fold-change to medium	7.5 fold-change to medium
bsAb011 (bispecific antibody, IgG anti-BTN3A, scFv anti-PD-L1) heavy: QVQLVQSGAEVKKPGASVKLSCKASGYIFTRYYMYWVKQRPGQGLEWIGEINPNNGGTKFNEKFKNRATLTVDKSISTAYMELSRLRSDDTAVYYCSREDDYDGTPFAMDYWGQGTLVTVSSASTKGPSVFPLAPSSKSTSGGTAALGCLVKDYFPEPVTVSWNSGALTSGVHTFPAVLQSSGLYSLSSVVTVPSSSLGTQTYICNVNHKPSNTKVDKRVEPKSCDKTHTCPPCPAPEFEGGPSVFLFPPKPKDTLMISRTPEVTCVVVDVSHEDPEVKFNWYVDGVEVHNAKTKPREEQYNSTYRVVSVLTVLHQDWLNGKEYKCKVSNKALPASIEKTISKAKGQPREPQVYTLPPSREEMTKNQVSLTCLVKGFYPSDIAVEWESNGQPENNYKTTPPVLDSDGSFFLYSKLTVDKSRWQQGNVFSCSVMHEALHNHYTQKSLSLSPG light: not shown	682000	722000	0.504	0.043	512000	1.14e+06	6.4 fold-change to medium	2.3 fold-change to medium
